# Results taken from patent publication US20030236184A1.
# Key:
# [1] = target: type-I GnRH binding site in the pituitary of adult male land-locked P. marinus (P. marinus (sea lamprey)); assay: competition with iodinated [DAla6,Pro9Net]-mammalian GnRH tracer, pituitary of adult male P. marinus; Ki from IC50
# [2] = target: type-II GnRH binding site in the pituitary of adult male land-locked P. marinus (P. marinus (sea lamprey)); assay: as above
# [3] = target: type-I GnRH binding site in the pituitary of adult male land-locked P. marinus (P. marinus (sea lamprey)); assay: self-displacement of iodinated [DAla6,Pro9Net]-mammalian GnRH tracer, pituitary of adult male P. marinus; Ki from IC50
# [4] = target: type-II GnRH binding site in the pituitary of adult male land-locked P. marinus (P. marinus (sea lamprey)); assay: as above
Substance,Ki [1] [nM],Ki [2] [nM],Ki [3] [nM],Ki [4] [nM]
"[Ac-Delta-3Pro, 4FDPhe^2-D-Trp^3,6]-lGnRH-III (peptide)",7.1,8940,–,–
"[D-Phe^2,6, Pro^3]-lGnRH-III (peptide)",0.03,52200,–,–
"[D-Phe^2, Gly^6]-lGnRH-I (peptide)",1.37,5650,–,–
"[D-Phe^2, Gly^6]-lGnRH-III (peptide)",0.00383,655,–,–
"[DAla^6, Pro^9Net]-mammalian GnRH (peptide)",–,–,0.00311,89
